# Measured values as given in paper PMC3706390.
# Key:
# L30 K36A = L30 K36A (rat, UniProt P62890 1-115, K36A); experiment: EMSA; reduced by 60%; 30 mM Tris-HCl pH 8.0, 75 mM KCl, 5 mM MgCl2, 1 mM DTT, 0.04 ug/uL BSA, 10% glycerol, 50 ng/uL yeast tRNA, 30 C 15 min; EMSA gels 0.5X TBE at 4 C; RNase digesti
# L30 Y89A = L30 Y89A (rat, UniProt P62890 1-115, Y89A); experiment: EMSA; L30 at 50% WT binding; 30 mM Tris-HCl pH 8.0, 75 mM KCl, 5 mM MgCl2, 1 mM DTT, 0.04 ug/uL BSA, 10% glycerol, 50 ng/uL yeast tRNA, 30 C 15 min; EMSA gels 0.5X TBE at 4 C; RNase digesti
# L30 K87A = L30 K87A (rat, UniProt P62890 1-115, K87A); experiment: EMSA; little effect vs WT; 30 mM Tris-HCl pH 8.0, 75 mM KCl, 5 mM MgCl2, 1 mM DTT, 0.04 ug/uL BSA, 10% glycerol, 50 ng/uL yeast tRNA, 30 C 15 min; EMSA gels 0.5X TBE at 4 C; RNase digesti
# L30 L35A = L30 L35A (rat, UniProt P62890 1-115, L35A); experiment: EMSA; reduced by 14%, significant; 30 mM Tris-HCl pH 8.0, 75 mM KCl, 5 mM MgCl2, 1 mM DTT, 0.04 ug/uL BSA, 10% glycerol, 50 ng/uL yeast tRNA, 30 C 15 min; EMSA gels 0.5X TBE at 4 C; RNase digesti
# L30 V91A = L30 V91A (rat, UniProt P62890 1-115, V91A); experiment: EMSA; comparable to WT; 30 mM Tris-HCl pH 8.0, 75 mM KCl, 5 mM MgCl2, 1 mM DTT, 0.04 ug/uL BSA, 10% glycerol, 50 ng/uL yeast tRNA, 30 C 15 min; EMSA gels 0.5X TBE at 4 C; RNase digesti
# L30 E110A = L30 E110A (rat, UniProt P62890 1-115, E110A); experiment: as above
# L30 L29A = L30 L29A (rat, UniProt P62890 1-115, L29A); experiment: as above
# L30 M108A = L30 M108A (rat, UniProt P62890 1-115, M108A); experiment: as above
binder,measurement,setting,value
GGGACCGGAGUGUCGCAAGACGCAGAGAUGGUCC (structured_RNA) [L30 RNA (stem-loop of L30 pre-mRNA)],binding signal,L30 K36A,40 % of WT binding
same,binding signal,L30 Y89A,37 % of WT binding
same,binding result,L30 K87A,binds
same,binding signal,L30 L35A,86 % of WT binding
same,binding result,L30 V91A,binds
same,binding result,L30 E110A,binds
same,binding result,L30 L29A,binds
same,binding result,L30 M108A,binds
